For this experiment, the target named is natural TSLP. The experiment is described as follows: cell-based or functional assay.

With Tezepelumab (antibody), the IC50 of inhibiting STAT5 phosphorylation in SW756-STAT5-Luciferase reporter gene cells induced by natural TSLP came to 1.45 ng/mL.

(Values after US20240352117A1.)
